In PMC10509167, “Identification and characterization of endo-α-, exo-α-, and exo-β-D-arabinofuranosidases degrading lipoarabinomannan and arabinogalactan of mycobacteria” (Nature Communications, 2023):

Key:
purified protein [1] = substrate: O=[N+]([O-])c1ccc(O[C@H]2O[C@H](CO)[C@@H](O)[C@@H]2O)cc1; assay: purified protein; format: biochemical, Microbacterium arabinogalactanolyticum; conditions: 37 °C, 50 mM sodium acetate pH 5.5
purified protein [2] = substrate: O=[N+]([O-])c1ccc(O[C@@H]2O[C@H](CO)[C@@H](O)[C@@H]2O)cc1; assay: purified protein; format: biochemical, Microbacterium arabinogalactanolyticum; conditions: 37 °C, 50 mM sodium phosphate pH 6.0

B1: ExoMA1 (MIAR_33200) (Microbacterium arabinogalactanolyticum) (protein)
chain: MPDLNSIAALRQVQTRSISPENFDGTAGGGGRATEGTGADCARDLGPGWKISPSVDIKAGETFELASIEGAGKITHIWITTHTDNWRTLILRAFWDGADEPAVEVPYGDFFCNGWGVFAQVNSQAIAANPHGGFNSYWPMPFRDGARLTIENTSVVDVRVYYQVTYEIGGDHSNDAYFHAQWRRSNPLEELTPHVILEGIEGEGHYVGTYIAWGVNSNGWWGEGEIKFYLDDDTDHPTICGTGTEDYFGGAWNFDIPGKGYTEFSTPYLGMPQVIRPDGLYVSQQRFGMYRWHLQDPIHFATGIPKVDIQALGWRSGWRYLPLRDDIASTAMFYLDRPTARRPKSPSADDMEVHLGTAPVPDLGATPPRV
notes: dodecamer
Km (purified protein [1]): 2550 µM
kcat (purified protein [1]): 44.4 s⁻¹

B2: ExoMA2 (MIAR_33170) (Microbacterium arabinogalactanolyticum) (protein)
chain: SRRARRIPHTAESVAFPLGGIGTGNVSLGARGELRDWEFENLPDKGRLNPRSFFAIHAAPQGGPSATRVLEARSSGRHDRDAGYGFDELAGLPRLDSAGLHGEYPVVDIDFTDATLPVTVSLHAFTPLVPLDADASGIPAAVLRYRVVNPGDAPVTVTVVGSMSHTAGRGAPGPDAPWGMRGTQSVRWRESDGIRGLDFDIDLDHDDPGYGTMSLTTTDSSTTVKPQWVTSYWPDGARLFWNDLADDGLLAPEARLTLEDKPRGLFAERDADPDAPALTEEQMLAKLPRVRTGSLGIVHTLAPGEERDFEFVLAWSFPNRRRGWHGHIIFDDALEDGAPDLRDELGPIVRNHYAVRWPDAWAAAAQLHRDLPALEGATDAFVEELYGGSLDPVLADAVGANIAALRSTTCFVLESPTPELGDGPVFAAWEGSFDHGGSCEGTCTHVWSYAQTAAWLFPGLERSARRAEYLLETDESGAQKFRGNRIFGAPRWFIGPAVDGQLGTFLRLHREWRFCGDDEFLRELWPAAARTLDYAAREWDHDGDGLLDGEMHNTYDIEFHGVEPLSNIIHLAALRAGVRMAGHLGDTARAQEWALRADHVAAAIEGVLWNGEYYRQVIDDVDAHRYQYGDGVLSDQLLGQFHAFLGGLGYLLPEAHVRSALDAIVQHNHRGDLRDHESTQRVYALNDEGGLLLASWPEGGRPALPFVYADEVWTGIEHQVAVSLLFAGRYDDALRIERTLRARYDGAHRSPWNEIECGNHYARSLASWGLLIGASGAQWDAGARTLSFDPVLPGDARFLFTTATGWGGVEIGDDVITLRLHGGALDLDELRLRGEVAGRGIHLDAGETRTLTLT
notes: dimer
Km (purified protein [2]): 2730 µM
kcat (purified protein [2]): 12.0 s⁻¹
